# Data published in patent US20230189818A1, “RNA-BASED CONTROL OF BOTRYTIS” (priority 2021, published 2023).
# B1: GS730: dsRNA trigger targeting B. cinerea Bcsec15 (XM_024692064.1); trigger SEQ ID NO 19, RNA 31, reverse complement 43 (nucleic acid, listed as Botrytis cinerea)
# sense: UCAACGCAGUCUCCAAAGCUUUGGAUGAAUUCGAUAACCCGGAUGUUAUUCUGCAAACCAAGAAUGUGAUAGCAUUGUUCAUCCAAACAAUGGAGGGUUGGGGAUAUUCAGUUGCCAUAUUAGAUGCUUAUGUGCUUAAGCUUUUCUAUAGAUAUGCUGAUUUGUUAAAACGGAAAUUCAGCACAGAUUUUCAACAGAUUGUGUCUACCGAUGAAUACAUGCCUAUGCCUGUCAAUAGCGAAGAAGACUUUGAUAAAAUCAUUCAAGUCAGUUGGUAUGUUCCGGACAGACCGAAAGAAGAAUACACAUUCCCCGGUGUAUUACCAUUCUCCCAGAUGUACCCAAUGUGCUGUAUAGAUAUCAGAAAUUUCCUGAAUCGAUUCUACUUCAUAAUGGAUGAUCAUUUUCAACAGCCAAACAUUAUUGAUGAGACACUUAAGAAGUCGAUAGAUGAGCUUCUGUCUGAGGAUAUUUGUGA
# antisense: UCACAAAUAUCCUCAGACAGAAGCUCAUCUAUCGACUUCUUAAGUGUCUCAUCAAUAAUGUUUGGCUGUUGAAAAUGAUCAUCCAUUAUGAAGUAGAAUCGAUUCAGGAAAUUUCUGAUAUCUAUACAGCACAUUGGGUACAUCUGGGAGAAUGGUAAUACACCGGGGAAUGUGUAUUCUUCUUUCGGUCUGUCCGGAACAUACCAACUGACUUGAAUGAUUUUAUCAAAGUCUUCUUCGCUAUUGACAGGCAUAGGCAUGUAUUCAUCGGUAGACACAAUCUGUUGAAAAUCUGUGCUGAAUUUCCGUUUUAACAAAUCAGCAUAUCUAUAGAAAAGCUUAAGCACAUAAGCAUCUAAUAUGGCAACUGAAUAUCCCCAACCCUCCAUUGUUUGGAUGAACAAUGCUAUCACAUUCUUGGUUUGCAGAAUAACAUCCGGGUUAUCGAAUUCAUCCAAAGCUUUGGAGACUGCGUUGA
# Tested on: Botrytis
# Assay: Open-air field trials on grape (Example 4.2, AUDPC of % disease severity)
# Format: in vivo, Botrytis cinerea
# Conditions: for Disease compared with the biological standard program of Serenade and JMS Stylet Oil (AUDPC) / Disease caused by Botrytis compared to untreated check (AUDPC): both trials; for Disease caused by Botrytis compared to untreated check (AUDPC): FIGS. 7 and 8; for Disease compared with the chemical program of Miravis Prime and Switch (AUDPC): second trial
# Description: RNAi compositions, each containing a dsRNA comprising a trigger sequence (GS730) described herein, were evaluated for ability to control Botrytis on grape in open-air field trials. Non-formulated and formulated compositions were tested. Non-formulated compositions were tank mixed with water and Silwet L-77 0.1% v/v. Formulated samples were formulated with RO water, propylene glycol, a linear alcohol ethoxylate, a lignosulfanate, sodium citrate dihydate, a polyacrylic acid polymer, two biocide compositions, anhydrous citric acid, and an antifoam, all of which are readily commercially available. Non-formulated and formulated GS 730 were each tested at concentrations of 50 g ai/ha and 100 g ai/ha. A standard biological program of Serenade 9.4 I/ha alternating with JMS Sylet Oil 1% v/v was used as a positive control. Chemical standards, Miravis Prime 392 g ai/ha ai and Switch 610 g ai/ha were applied to a second positive control group in alternating applications. An untreated group was used as a negative control
# Positive controls were applied to grape plants at bloom, bunch closure, veraison, and 7-10 days before harvest. Test applications were made on the same timing as the positive controls with additional applications seven days after bloom, bunch closure, veraison, and 7-10 days before harvest. Disease state was evaluated over the course of three to four weeks, starting two days after the last application (Slide 3) or 18 days […] the last application. Percent Disease Severity was assessed and AUDPC was calculated in the same manner as noted in Example 4.1.
# [1] = non-formulated, 50 and 100 g ai/ha
molecule,measurement,setting,value
B1,Disease compared with the biological standard program of Serenade and JMS Stylet Oil (AUDPC),"formulated, 100 g ai/ha",not statistically different
same,Disease caused by Botrytis compared to untreated check (AUDPC),"formulated, 100 g ai/ha",significantly reduced disease
same,Disease compared with the chemical program of Miravis Prime and Switch (AUDPC),"formulated, 100 g ai/ha",comparable
same,Disease compared with the biological standard program of Serenade and JMS Stylet Oil (AUDPC),[1],not statistically different
same,Disease caused by Botrytis compared to untreated check (AUDPC),[1],significantly reduced disease
same,Disease compared with the chemical program of Miravis Prime and Switch (AUDPC),[1],comparable
